Test results taken from the Immune Epitope Database (IEDB).

Molecular target: HLA-A*02:01
Test: IEDB peptide-MHC binding, purified MHC/competitive/radioactivity; ≥ and ≤ were set here for values at or beyond the usual limits of such assays
Settings: source organism: Hepacivirus hominis

Sequence	IC50 [nM]
RLLAPITAYA	29
RLLLLGLLLL	496

Same assay, conditions: source organism: Influenza A virus

Sequence	IC50 [nM]
NLFEKFFPSS	271
NVMGMIGV	1460

Same assay, conditions: source organism: Mammarenavirus choriomeningitidis

Sequence	IC50 [nM]
NSLILLECFV	7.4

Same assay, conditions: source organism: Mammarenavirus lassaense

Sequence	IC50 [nM]
NCLSLLLSV	73

Same assay, conditions: source organism: SARS-CoV1

Sequence	IC50 [nM]
NLLLLFVTI	201
NLWNTFTRL	6.9
NMLRIMASL	68
NVLAWLYAA	9.2
QLMCQPILL	0.96
QLMCQPILLL	12
QMLSVVGFLV	7.5
RMVSLVTSFL	108

Same assay, conditions: source organism: Vaccinia virus WR

Sequence	IC50 [nM]
NIFMTLVPV	11
NIGCAVNTPV	23
NIISYIILFI	156
NILMDSIFV	179
NIPELKHGLL	2560
NITRLEVIGL	424
NIVTFINDYA	827
NLDDVYSYI	3.8
NLETYTRPEI	1220
NLFDIPLLT	10
NLILNFLDWI	4390
NLTQLFKYV	1180
NLYKVYNGI	451
NMCNSDVSV	88
NMDWRSLTQV	4.2
NMINKLYGYA	88
NMLDDFSAGA	190
NTCKPTILAT	4410
NTDHPLSINV	307
NTIAVITETI	108
NTIDKSSPL	972
NTISGNIYSA	640
NTTTFITVLT	559
NTVGMSIVCI	3260
NVDIIDLLL	858
NVFISPASI	136
NVIEDITFL	304
NVIGLIVIL	342

Sequence	IC50 [nM]
NVISKIYTL	147
NVISKIYTLI	329
NVSGVPHSV	592
NVSRVVECL	4110
PASISSVLT	1200
PIIYSKAGNI	873
PISDYSAEV	1050
PLISILMIFI	836
PMSRLFMDEI	4020
PTSETMYLTM	529
QIFNIISYI	15
QIFNIISYII	355
QIMECSRML	103
QLFKYVPSA	7
QLMYDIINSV	0.78
QMAGVEVRYI	6.4
RAAIDRQVSV	554
RAFIYSIMET	659
RAKRKPAMST	785
RIASILSLET	985
RIITILQDI	146
RIITILQDIV	526
RIVVALSSLV	51
RIYCSLFKNV	62
RLPSETFPNV	0.11
RLQMAGVEV	1450
RLRQDTEDI	219

Molecular target: HLA-A*02:02
Test: as above
Settings: source organism: Hepacivirus hominis

Sequence	IC50 [nM]
RLLAPITAYA	5.2
RLLLLGLLLL	1200

Same assay, conditions: source organism: Influenza A virus

Sequence	IC50 [nM]
NLFEKFFPSS	415
NVMGMIGV	1980

Same assay, conditions: source organism: Mammarenavirus choriomeningitidis

Sequence	IC50 [nM]
NSLILLECFV	1.2

Same assay, conditions: source organism: Mammarenavirus lassaense

Sequence	IC50 [nM]
NCLSLLLSV	49

Same assay, conditions: source organism: SARS-CoV1

Sequence	IC50 [nM]
NLLLLFVTI	436
NLWNTFTRL	24
NMLRIMASL	3.4
NVLAWLYAA	7.3
QLMCQPILL	3
QLMCQPILLL	92
QMLSVVGFLV	1.2
RMVSLVTSFL	1.7

Same assay, conditions: source organism: Vaccinia virus WR

Sequence	IC50 [nM]
NIFMTLVPV	86
NIGCAVNTPV	126
NIISYIILFI	123
NILMDSIFV	252
NIPELKHGLL	2300
NITRLEVIGL	907
NIVTFINDYA	62
NLDDVYSYI	0.72
NLETYTRPEI	539
NLFDIPLLT	135
NLILNFLDWI	1690
NLTQLFKYV	320
NLYKVYNGI	408
NMCNSDVSV	80
NMDWRSLTQV	100
NMINKLYGYA	1.6
NMLDDFSAGA	308
NTCKPTILAT	460
NTDHPLSINV	388
NTIAVITETI	50
NTIDKSSPL	82
NTISGNIYSA	269
NTTTFITVLT	1960
NTVGMSIVCI	3020
NVDIIDLLL	461
NVFISPASI	202
NVIEDITFL	146
NVIGLIVIL	85

Sequence	IC50 [nM]
NVISKIYTL	147
NVISKIYTLI	0.99
NVSGVPHSV	825
NVSRVVECL	133
PASISSVLT	1380
PIIYSKAGNI	654
PISDYSAEV	716
PLISILMIFI	433
PMSRLFMDEI	1930
PTSETMYLTM	862
QIFNIISYI	111
QIFNIISYII	288
QIMECSRML	620
QLFKYVPSA	12
QLMYDIINSV	1.9
QMAGVEVRYI	0.21
RAAIDRQVSV	626
RAFIYSIMET	81
RAKRKPAMST	977
RIASILSLET	583
RIITILQDI	583
RIITILQDIV	595
RIVVALSSLV	48
RIYCSLFKNV	913
RLPSETFPNV	173
RLQMAGVEV	326
RLRQDTEDI	230

Molecular target: HLA-A*02:03
Test: as above
Settings: source organism: Hepacivirus hominis

Sequence	IC50 [nM]
RLLAPITAYA	25
RLLLLGLLLL	4250

Same assay, conditions: source organism: Influenza A virus

Sequence	IC50 [nM]
NLFEKFFPSS	362
NVMGMIGV	512

Same assay, conditions: source organism: Mammarenavirus choriomeningitidis

Sequence	IC50 [nM]
NSLILLECFV	47

Same assay, conditions: source organism: Mammarenavirus lassaense

Sequence	IC50 [nM]
NCLSLLLSV	437

Same assay, conditions: source organism: SARS-CoV1

Sequence	IC50 [nM]
NLLLLFVTI	1600
NLWNTFTRL	194
NMLRIMASL	38
NVLAWLYAA	15
QLMCQPILL	12
QLMCQPILLL	217
QMLSVVGFLV	6
RMVSLVTSFL	12

Same assay, conditions: source organism: Vaccinia virus WR

Sequence	IC50 [nM]
NIFMTLVPV	6.4
NIGCAVNTPV	30
NIISYIILFI	133
NILMDSIFV	223
NIPELKHGLL	2700
NITRLEVIGL	95
NIVTFINDYA	245
NLDDVYSYI	96
NLETYTRPEI	1500
NLFDIPLLT	36
NLILNFLDWI	283
NLTQLFKYV	238
NLYKVYNGI	62
NMCNSDVSV	30
NMDWRSLTQV	17
NMINKLYGYA	0.44
NMLDDFSAGA	161
NTCKPTILAT	248
NTDHPLSINV	583
NTIAVITETI	56
NTIDKSSPL	27
NTISGNIYSA	314
NTTTFITVLT	596
NTVGMSIVCI	1540
NVDIIDLLL	4090
NVFISPASI	0.73
NVIEDITFL	300
NVIGLIVIL	2400

Sequence	IC50 [nM]
NVISKIYTL	97
NVISKIYTLI	33
NVSGVPHSV	24
NVSRVVECL	938
PASISSVLT	1360
PIIYSKAGNI	139
PISDYSAEV	267
PLISILMIFI	769
PMSRLFMDEI	726
PTSETMYLTM	191
QIFNIISYI	15
QIFNIISYII	206
QIMECSRML	1380
QLFKYVPSA	7.8
QLMYDIINSV	0.14
QMAGVEVRYI	0.14
RAAIDRQVSV	41
RAFIYSIMET	70
RAKRKPAMST	1380
RIASILSLET	449
RIITILQDI	5.6
RIITILQDIV	209
RIVVALSSLV	7.2
RIYCSLFKNV	30
RLPSETFPNV	14
RLQMAGVEV	531
RLRQDTEDI	387

Molecular target: HLA-A*02:06
Test: as above
Settings: source organism: Hepacivirus hominis

Sequence	IC50 [nM]
RLLAPITAYA	103
RLLLLGLLLL	1050

Same assay, conditions: source organism: Influenza A virus

Sequence	IC50 [nM]
NLFEKFFPSS	28
NVMGMIGV	1250

Same assay, conditions: source organism: Mammarenavirus choriomeningitidis

Sequence	IC50 [nM]
NSLILLECFV	4.2

Same assay, conditions: source organism: Mammarenavirus lassaense

Sequence	IC50 [nM]
NCLSLLLSV	630

Same assay, conditions: source organism: SARS-CoV1

Sequence	IC50 [nM]
NLLLLFVTI	456
NLWNTFTRL	166
NMLRIMASL	50
NVLAWLYAA	1.6
QLMCQPILL	77
QLMCQPILLL	325
QMLSVVGFLV	14
RMVSLVTSFL	53

Same assay, conditions: source organism: Vaccinia virus WR

Sequence	IC50 [nM]
NIFMTLVPV	227
NIGCAVNTPV	176
NIISYIILFI	72
NILMDSIFV	170
NIPELKHGLL	1230
NITRLEVIGL	197
NIVTFINDYA	351
NLDDVYSYI	92
NLETYTRPEI	636
NLFDIPLLT	1540
NLILNFLDWI	443
NLTQLFKYV	657
NLYKVYNGI	817
NMCNSDVSV	97
NMDWRSLTQV	1.7
NMINKLYGYA	137
NMLDDFSAGA	242
NTCKPTILAT	3920
NTDHPLSINV	1.6
NTIAVITETI	784
NTIDKSSPL	19
NTISGNIYSA	393
NTTTFITVLT	600
NTVGMSIVCI	1210
NVDIIDLLL	22
NVFISPASI	660
NVIEDITFL	26
NVIGLIVIL	15

Sequence	IC50 [nM]
NVISKIYTL	1.7
NVISKIYTLI	196
NVSGVPHSV	278
NVSRVVECL	1030
PASISSVLT	1490
PIIYSKAGNI	728
PISDYSAEV	2800
PLISILMIFI	2420
PMSRLFMDEI	4370
PTSETMYLTM	915
QIFNIISYI	1.8
QIFNIISYII	743
QIMECSRML	948
QLFKYVPSA	349
QLMYDIINSV	5.6
QMAGVEVRYI	45
RAAIDRQVSV	212
RAFIYSIMET	578
RAKRKPAMST	1550
RIASILSLET	751
RIITILQDI	2
RIITILQDIV	95
RIVVALSSLV	9.6
RIYCSLFKNV	7.1
RLPSETFPNV	0.58
RLQMAGVEV	4110
RLRQDTEDI	4580

Molecular target: HLA-A*68:02
Test: as above
Settings: source organism: Hepacivirus hominis

Sequence	IC50 [nM]
RLLAPITAYA	94
RLLLLGLLLL	3610

Same assay, conditions: source organism: Influenza A virus

Sequence	IC50 [nM]
NLFEKFFPSS	360
NVMGMIGV	98

Same assay, conditions: source organism: Mammarenavirus choriomeningitidis

Sequence	IC50 [nM]
NSLILLECFV	43

Same assay, conditions: source organism: Mammarenavirus lassaense

Sequence	IC50 [nM]
NCLSLLLSV	1850

Same assay, conditions: source organism: SARS-CoV1

Sequence	IC50 [nM]
NLLLLFVTI	755
NLWNTFTRL	391
NMLRIMASL	1310
NVLAWLYAA	39
QLMCQPILL	140
QLMCQPILLL	2310
QMLSVVGFLV	206
RMVSLVTSFL	6.3

Same assay, conditions: source organism: Vaccinia virus WR

Sequence	IC50 [nM]
NIFMTLVPV	2.6
NIGCAVNTPV	11
NIISYIILFI	25
NILMDSIFV	147
NIPELKHGLL	100
NITRLEVIGL	301
NIVTFINDYA	82
NLDDVYSYI	1030
NLETYTRPEI	2080
NLFDIPLLT	2890
NLILNFLDWI	3710
NLTQLFKYV	4340
NLYKVYNGI	1610
NMCNSDVSV	202
NMDWRSLTQV	826
NMINKLYGYA	292
NMLDDFSAGA	2600
NTCKPTILAT	1640
NTDHPLSINV	0.67
NTIAVITETI	2.1
NTIDKSSPL	5.7
NTISGNIYSA	0.19
NTTTFITVLT	34
NTVGMSIVCI	198
NVDIIDLLL	262
NVFISPASI	1.9
NVIEDITFL	31
NVIGLIVIL	0.17

Sequence	IC50 [nM]
NVISKIYTL	4.6
NVISKIYTLI	67
NVSGVPHSV	2.8
NVSRVVECL	28
PASISSVLT	1490
PIIYSKAGNI	3110
PISDYSAEV	1390
PLISILMIFI	915
PMSRLFMDEI	1360
PTSETMYLTM	4210
QIFNIISYI	6.4
QIFNIISYII	332
QIMECSRML	1400
QLFKYVPSA	1620
QLMYDIINSV	165
QMAGVEVRYI	147
RAAIDRQVSV	54
RAFIYSIMET	852
RAKRKPAMST	551
RIASILSLET	442
RIITILQDI	1490
RIITILQDIV	290
RIVVALSSLV	8.5
RIYCSLFKNV	549
RLPSETFPNV	91
RLQMAGVEV	2510
RLRQDTEDI	4170
